Results reported in paper PMC3919030 (Journal of molecular biology, 2013).
Positions count from the first letter of the chain named. Numbers in names are those of the source.

T1: S. cerevisiae Vps4p (wild type) (S. cerevisiae, UniProt P52917 1-437)
T1 sequence (looked up): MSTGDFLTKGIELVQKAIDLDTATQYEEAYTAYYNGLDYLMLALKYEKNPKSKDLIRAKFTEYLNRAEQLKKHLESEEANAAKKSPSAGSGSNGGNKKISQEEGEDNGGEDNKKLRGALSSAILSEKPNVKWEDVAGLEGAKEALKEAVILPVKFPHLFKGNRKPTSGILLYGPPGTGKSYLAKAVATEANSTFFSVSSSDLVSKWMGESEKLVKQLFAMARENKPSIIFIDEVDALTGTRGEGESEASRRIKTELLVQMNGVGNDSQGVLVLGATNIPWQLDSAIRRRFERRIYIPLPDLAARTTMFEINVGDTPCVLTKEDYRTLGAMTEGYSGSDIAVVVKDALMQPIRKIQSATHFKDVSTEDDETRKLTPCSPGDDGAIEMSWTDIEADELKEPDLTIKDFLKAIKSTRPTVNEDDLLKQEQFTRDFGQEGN

B1: S. cerevisiae Vps4p(E233Q) (enzyme, UniProt P52917 1-437, looked up)
chain: T1 sequence (looked up) with E233Q
B2: Sulfolobus solfataricus Vps4 (SsoVps4, wild type) (enzyme, UniProt Q97ZJ7 1-372, looked up)
chain: MSAQVMLEDMARKYAILAVKADKEGKVEDAITYYKKAIEVLSQIIVLYPESVARTAYEQMINEYKKRISYLEKVLPASSDGSGDNTSPPEEVVITEKPKVSFKDIVGLDDVKEALREAIIYPTKRPDLFPLGWPRGILLYGPPGCGKTMIAAAVANEIDSIFMQLDAASVMSKWLGEAEKNVANVFKMAREESKKQNKPAIIFIDELDALLGVYSTEVGGEARVRNQFLKEMDGLLDKSENYKVYVIGATNKPWRLDEAFLRRFQKRIYVPLPDYEQRLSLFKYYTSKIKLDTEVSLEELAKLTEGYTASDIRDIVQAAHIKVVKEMFKNNLGEPRTITLQDFKDILKVRMPSVNPELIKAYEAWTEKFKAL
B3: SsoVps4(F328A) (enzyme, Sulfolobus solfataricus, UniProt Q97ZJ7 1-372, looked up)
chain: B2 chain with F328A
B4: SsoVps4(R263A) (enzyme, Sulfolobus solfataricus, UniProt Q97ZJ7 1-372, looked up)
chain: B2 chain with R263A
B5: SsoVps4(R262A) (enzyme, Sulfolobus solfataricus, UniProt Q97ZJ7 1-372, looked up)
chain: B2 chain with R262A
B6: SsoVps4(E206Q) (enzyme, Sulfolobus solfataricus, UniProt Q97ZJ7 1-372, looked up)
chain: B2 chain with E206Q
B7: SsoVps4(85-372, E206Q) (domain or fragment, Sulfolobus solfataricus, UniProt Q97ZJ7 85-372, looked up)
chain: NTSPPEEVVITEKPKVSFKDIVGLDDVKEALREAIIYPTKRPDLFPLGWPRGILLYGPPGCGKTMIAAAVANEIDSIFMQLDAASVMSKWLGEAEKNVANVFKMAREESKKQNKPAIIFIDQLDALLGVYSTEVGGEARVRNQFLKEMDGLLDKSENYKVYVIGATNKPWRLDEAFLRRFQKRIYVPLPDYEQRLSLFKYYTSKIKLDTEVSLEELAKLTEGYTASDIRDIVQAAHIKVVKEMFKNNLGEPRTITLQDFKDILKVRMPSVNPELIKAYEAWTEKFKAL
modifications: selenomethionine-substituted
B8: S. cerevisiae Vta1p (natural protein, UniProt Q06263 1-330, looked up)
chain: MASNAARVVATAKDFDKVGLGIIGYYLQLYAVELILSEEDRSQEMTALATELLDTIEAFKKEIGGESEAEDSDKSLHVMNTLIHDQEKAKIYMLNFTMSLYNEKLKQLKDGPWDVMLKRSLWCCIDLFSCILHLWKENISETSTNSLQKRIKYCKIYLSKLAKGEIGSSDEKTLDYADFADDSEEIKDEDVDHQTSDLENNNNDKVEGLAPKDQTTSYEPVDEVPEFIDDADSVNEEEQTVDKNEDAITKDEQQVVKKEVDLTRPSAPSEPAAAEHKSYTKDELTKIMDRASKIEQIQKLAKYAISALNYEDLPTAKDELTKALDLLNSI

What was measured:
SEC [1] = target: the molecule itself; test: SEC
SEC [2] = target: the molecule itself; test: SEC; remark: listed apart in the source
SEC [3] = target: the molecule itself; test: SEC; remark: listed apart in the source
AUC = target: the molecule itself; test: AUC
SEC [4] = target: the molecule itself; test: SEC; remark: listed apart in the source
SEC [5] = target: the molecule itself; test: SEC; remark: listed apart in the source
crystal structure = target: the molecule itself; test: crystal structure
[6] = target: B1; test: SEC
[7] = target: T1, S. cerevisiae Vps4p (wild type); test: SEC

B1
stoichiometry N (SEC [1]): 12
stoichiometry N (SEC [2]): 6

B2
stoichiometry N (SEC [3]): ~6
stoichiometry N (AUC): 6
stoichiometry N (SEC [4]): 12

B3
stoichiometry N (SEC [3]): 2

B4
binding result (SEC [5]): binds

B5
binding result (SEC [5]): binds

B6
stoichiometry N (SEC [3]): ~6
stoichiometry N (SEC [4]): 12

B7
binding result (crystal structure): binds

B8
binding result [6]: binds
binding result [7]: binds
